Measurements reported in paper PMC9388692, “Nuclear import of PTPN18 inhibits breast cancer metastasis mediated by MVP and importin β2” (Cell Death & Disease, 2022).

Key:
[1] = target: T1, His-tagged importin β2 (UniProt Q92973 1-898); assay: pull-down; GST pull-down of GST-tagged PTPN18 and its NLS mutants with His-tagged importin β2; purified proteins, in vitro; conditions: both partners purified
T1 construct: source: purified proteins
T1 sequence (looked up): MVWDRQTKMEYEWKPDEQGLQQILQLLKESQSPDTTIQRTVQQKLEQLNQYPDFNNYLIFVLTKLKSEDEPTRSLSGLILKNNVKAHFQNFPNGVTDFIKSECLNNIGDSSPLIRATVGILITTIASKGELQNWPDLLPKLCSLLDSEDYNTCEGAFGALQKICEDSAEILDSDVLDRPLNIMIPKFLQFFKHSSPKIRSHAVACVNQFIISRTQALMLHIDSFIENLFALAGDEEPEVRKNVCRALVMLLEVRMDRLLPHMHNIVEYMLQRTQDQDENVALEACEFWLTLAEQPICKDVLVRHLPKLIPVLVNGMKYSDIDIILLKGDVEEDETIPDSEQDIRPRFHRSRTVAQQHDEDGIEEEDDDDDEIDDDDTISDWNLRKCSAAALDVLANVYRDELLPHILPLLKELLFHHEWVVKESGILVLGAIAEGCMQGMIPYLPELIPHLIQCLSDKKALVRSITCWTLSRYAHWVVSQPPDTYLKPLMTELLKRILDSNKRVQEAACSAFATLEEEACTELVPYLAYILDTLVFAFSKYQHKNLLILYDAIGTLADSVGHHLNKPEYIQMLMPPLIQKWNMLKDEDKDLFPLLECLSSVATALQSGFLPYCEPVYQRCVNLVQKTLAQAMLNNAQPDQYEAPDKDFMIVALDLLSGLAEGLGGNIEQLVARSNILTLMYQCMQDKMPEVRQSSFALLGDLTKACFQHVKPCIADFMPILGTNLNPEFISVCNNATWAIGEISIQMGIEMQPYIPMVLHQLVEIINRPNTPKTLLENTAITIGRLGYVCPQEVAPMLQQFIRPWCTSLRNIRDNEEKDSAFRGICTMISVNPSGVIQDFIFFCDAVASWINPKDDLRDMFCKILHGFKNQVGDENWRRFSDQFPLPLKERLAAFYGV

[2] = target: T2, His-tagged MVP (UniProt Q14764 1-893); assay: pull-down; GST pull-down with GST-tagged PTPN18 and His-tagged MVP; called a direct interaction, in vitro; conditions: both partners purified
T2 construct: MVP, His-tagged, for GST pull-down
T2 sequence (Q14764 whole entry): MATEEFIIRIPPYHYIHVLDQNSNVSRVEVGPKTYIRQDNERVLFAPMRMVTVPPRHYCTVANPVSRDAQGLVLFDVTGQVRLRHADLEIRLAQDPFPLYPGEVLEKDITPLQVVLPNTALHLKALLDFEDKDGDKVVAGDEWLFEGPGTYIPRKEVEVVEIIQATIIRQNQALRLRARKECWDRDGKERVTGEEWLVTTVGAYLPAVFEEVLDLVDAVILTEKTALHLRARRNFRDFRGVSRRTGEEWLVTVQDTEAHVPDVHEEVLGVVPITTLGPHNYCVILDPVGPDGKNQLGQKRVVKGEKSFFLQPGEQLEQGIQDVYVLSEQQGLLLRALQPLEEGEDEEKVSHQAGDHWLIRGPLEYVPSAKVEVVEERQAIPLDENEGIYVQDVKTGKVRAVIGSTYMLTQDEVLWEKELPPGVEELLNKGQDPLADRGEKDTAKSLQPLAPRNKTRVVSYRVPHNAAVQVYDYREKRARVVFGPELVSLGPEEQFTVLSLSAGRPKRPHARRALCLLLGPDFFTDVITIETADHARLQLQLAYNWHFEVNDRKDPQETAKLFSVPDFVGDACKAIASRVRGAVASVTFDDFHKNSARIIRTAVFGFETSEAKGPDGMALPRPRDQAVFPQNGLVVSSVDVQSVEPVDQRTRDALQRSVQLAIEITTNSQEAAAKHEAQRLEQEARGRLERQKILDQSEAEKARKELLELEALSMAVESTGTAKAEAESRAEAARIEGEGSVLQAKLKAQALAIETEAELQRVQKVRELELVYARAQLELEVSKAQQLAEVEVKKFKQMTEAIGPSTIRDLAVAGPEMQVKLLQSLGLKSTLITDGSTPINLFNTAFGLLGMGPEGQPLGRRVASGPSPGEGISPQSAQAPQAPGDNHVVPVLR

- binding result [1]: binds
- binding result [2]: binds
B1: GST-tagged PTPN18 (natural protein, UniProt Q99952 1-460, looked up)
chain: MSRSLDSARSFLERLEARGGREGAVLAGEFSDIQACSAAWKADGVCSTVAGSRPENVRKNRYKDVLPYDQTRVILSLLQEEGHSDYINGNFIRGVDGSLAYIATQGPLPHTLLDFWRLVWEFGVKVILMACREIENGRKRCERYWAQEQEPLQTGLFCITLIKEKWLNEDIMLRTLKVTFQKESRSVYQLQYMSWPDRGVPSSPDHMLAMVEEARRLQGSGPEPLCVHCSAGCGRTGVLCTVDYVRQLLLTQMIPPDFSLFDVVLKMRKQRPAAVQTEEQYRFLYHTVAQMFCSTLQNASPHYQNIKENCAPLYDDALFLRTPQALLAIPRPPGGVLRSISVPGSPGHAMADTYAVVQKRGAPAGAGSGTQTGTGTGTGARSAEEAPLYSKVTPRAQRPGAHAEDARGTLPGRVPADQSPAGSGAYEDVAGGAQTGGLGFNLRIGRPKGPRDPPAEWTRV
notes: PTPN18 wild type, GST-tagged, for GST pull-down; also called PTPN18 WT; source: purified proteins
